Results from article PMC7599583 (Viruses, 2020).
Values joined by “and” are separate entries in the source; they are usually repeats but may differ in a detail not shown here. Equal entries are not always repeated.

How the values were obtained:
[1] = target: T1, Human adenovirus serotype 7 fiber knob, His-tagged (His-HAd7K), wild type (human adenovirus serotype 7 (HAdV7), …); test: BLI
T1 chain: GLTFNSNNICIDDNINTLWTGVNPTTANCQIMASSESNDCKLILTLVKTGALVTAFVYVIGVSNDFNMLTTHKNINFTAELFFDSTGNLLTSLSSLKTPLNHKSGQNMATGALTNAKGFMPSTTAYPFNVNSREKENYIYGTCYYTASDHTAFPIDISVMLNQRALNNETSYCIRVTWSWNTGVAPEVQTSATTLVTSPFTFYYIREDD

[2] = target: T1, Human adenovirus serotype 7 fiber knob, …; test: BLI
[3] = target: T2, Human adenovirus serotype 7 fiber knob, His-tagged (His-HAd7K), wild type (human adenovirus serotype 7 (HAdV7), …, N-glycosylated (sugars almost 15% of the total mass by mass spectrometry) / Wild-type trimeric knob; N-terminal His tag and GSHM omitted. The printed limits D87-P273 do not fit the paper's own residue); test: cryo-EM structure; details: both partners purified
T2 chain: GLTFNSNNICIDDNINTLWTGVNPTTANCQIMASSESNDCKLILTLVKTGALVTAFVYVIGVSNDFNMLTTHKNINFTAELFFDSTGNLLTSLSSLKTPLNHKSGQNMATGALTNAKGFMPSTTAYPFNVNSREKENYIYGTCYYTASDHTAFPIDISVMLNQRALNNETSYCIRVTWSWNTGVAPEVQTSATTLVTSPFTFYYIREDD

[4] = target: T3, Human adenovirus serotype 7 fiber knob, His-tagged (His-HAd7K), wild type (human adenovirus serotype 7 (HAdV7), …); test: cryo-EM structure; details: both partners purified
T3 chain: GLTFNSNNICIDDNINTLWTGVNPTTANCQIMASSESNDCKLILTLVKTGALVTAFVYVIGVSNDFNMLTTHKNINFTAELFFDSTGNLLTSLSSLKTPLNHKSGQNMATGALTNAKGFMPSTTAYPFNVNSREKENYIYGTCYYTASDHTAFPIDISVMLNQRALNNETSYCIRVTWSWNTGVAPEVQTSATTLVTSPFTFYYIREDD

B1: Desmoglein-2 (DSG2), non His-tagged, Leinco Technologies (receptor)
chain: AWITAPVALREGEDLSKKNPIAKIHSDLAEERGLKITYKYTGKGITEPPFGIFVFNKDTGELNVTSILDREETPFFLLTGYALDARGNNVEKPLELRIKVLDINDNEPVFTQDVFVGSVEELSAAHTLVMKINATDADEPNTLNSKISYRIVSLEPAYPPVFYLNKDTGEIYTTSVTLDREEHSSYTLTVEARDGNGEVTDKPVKQAQVQIRILDVNDNIPVVENKVLEGMVEENQVNVEVTRIKVFDADEIGSDNWLANFTFASGNEGGYFHIETDAQTNEGIVTLIKEVDYEEMKNLDFSVIVANKAAFHKSIRSKYKPTPIPIKVKVKNVKEGIHFKSSVISIYVSESMDRSSKGQIIGNFQAFDEDTGLPAHARYVKLEDRDNWISVDSVTSEIKLAKLPDFESRYVQNGTYTVKIVAISEDYPRKTITGTVLINVEDINDNCPTLIEPVQTICHDAEYVNVTAEDLDGHPNSGPFSFSVIDKPPGMAEKWKIARQESTSVLLQQSEKKLGRSEIQFLISDNQGFSCPEKQVLTLTVCECLHGSGCREAQHDSYVG
modifications: Wild-type trimeric knob; N-terminal His tag and GSHM omitted. The printed limits D87-P273 do not fit the paper's own residue numbering (V300 and P302 are present in the knob), so the deposited knob entity (same as 3EXW) with the last shaft repeat is used. Entity position = fiber number - 112 (D265=153, F269=157, N192=80), an offset inferred by assuming a 325-residue fiber and comparing with HAd3K.
- koff [1]: 0.000112 s⁻¹
- Kd [2]: 4.04 nM

B2: EC2-EC3 domains of desmoglein-2 (EC23 module), glycosylated (domain or fragment, UniProt Q14126 149-386, looked up)
chain: VLDINDNEPVFTQDVFVGSVEELSAAHTLVMKINATDADEPNTLNSKISYRIVSLEPAYPPVFYLNKDTGEIYTTSVTLDREEHSSYTLTVEARDGNGEVTDKPVKQAQVQIRILDVNDNIPVVENKVLEGMVEENQVNVEVTRIKVFDADEIGSDNWLANFTFASGNEGGYFHIETDAQTNEGIVTLIKEVDYEEMKNLDFSVIVANKAAFHKSIRSKYKPTPIPIKVKVKNVKEGI
notes: also called EC2-EC3 module; EC23 module of DSG2
- stoichiometry N [3]: 2 EC23 modules per HAd7K trimer and 3 EC23 modules per HAd7K trimer

B3: Human adenovirus serotype 7 fiber knob, His-tagged (His-HAd7K), wild type (domain or fragment)
chain: GLTFNSNNICIDDNINTLWTGVNPTTANCQIMASSESNDCKLILTLVKTGALVTAFVYVIGVSNDFNMLTTHKNINFTAELFFDSTGNLLTSLSSLKTPLNHKSGQNMATGALTNAKGFMPSTTAYPFNVNSREKENYIYGTCYYTASDHTAFPIDISVMLNQRALNNETSYCIRVTWSWNTGVAPEVQTSATTLVTSPFTFYYIREDD
modifications: Wild-type trimeric knob; N-terminal His tag and GSHM omitted. The printed limits D87-P273 do not fit the paper's own residue numbering (V300 and P302 are present in the knob), so the deposited knob …
- stoichiometry N [4]: 3
